Reference: patent US20140302063A1 (SECRETARY OF STATE FOR HEALTH, published 2014)

Legend:
[1] = biological target: A/Brisbane/59/2007 (H1N1-like) inactivated viral preparation (Influenza A virus A/Brisbane/59/2007 (H1N1-like)); assay: ELISA, inactivated virus
[2] = biological target: A/California/7/2009 (H1N1) inactivated viral preparation (Influenza A virus A/California/7/2009 (H1N1)); assay: ELISA, inactivated virus

B1: R1a-C5 (VHH)
VHH: QVQLVESGGGLVQPGGSLRLSCAASNDIFSFYTMGWYLQAIGKQREPVAVIGNGGNTNYAESVKGRFTISRDGAKNTAYLQMNSLKPEDTAVYYCMASGPGGLNVWGQGTQVTVSS
EC50 [1]: 3.3 µg/mL | EC50 [2]: 1.71 µg/mL

B2: R2a-H9 (VHH)
VHH: QVQLVESGGGLVQPGGSLRLSCAASTNIASFYTMGWYRQTPGQQRDVVAVIGNGGNTNYADSVKGRFTISRDGAKNTAHLQMNSLKPEDTDVYYCKASGPGGVILWGQGTQVTVSS
EC50 [2]: 0.97 µg/mL

B3: R1a-A5 (VHH)
VHH: QVQLVESGGGLVQPGGSLRLSCSASGSAVLFSTYPMSWYRQAPGKQRELVAAVTTDGSTSYADYAKGRFTISRDNAKNTVYLQMNSLKPEDTAVYYCNARDGFFNRYDYWGQGTQVTVSS
EC50 [1]: 0.38 µg/mL | EC50 [2]: 0.31 µg/mL

B4: R2a-G8 (VHH)
VHH: QLQLAESGGGLVQAGGSLRLSCAASGSTLNNNAIGWFRQAPGKEREGVSCMNSRDGTTNYADSVKGRFTISRDVAKNTVYLQMNSLKPEDTAVYFCAVKGFAPFLIGCPWGKAEYDYWGQGTQVTVSS
EC50 [1]: 1.86 µg/mL | EC50 [2]: 4.11 µg/mL

B5: R1a-G5 (VHH)
VHH: QLQLVESGGGLVQPGGSLRLSCAASGSISRIVTMGWYRQASGKERELVAVIGNYGNTNYADSVKGRFTVSRDNAKDTAYLQMNGLNVEDTAIYYCKTSTTTPPYEYWGQGTQVTVSS
EC50 [1]: 0.29 µg/mL | EC50 [2]: 1.73 µg/mL

B6: R1a-F4 (VHH)
VHH: QVQLVESGGGLVQPGGSLRLSCAASGSISRIVTMGWYRQGPGKERELVAVIGNYGNTNYADSVKGRFTVSRDNAKDTAYLQMNNLNVEDTAMYYCKCSTTTPPHEFWGQGTQVTVSS
EC50 [2]: 0.79 µg/mL

B7: R2b-D9 (VHH)
VHH: QVQLVESGGGLVQPGGSLRLSCLASGSAFSLYTMGWYRQAPGNQRELVAAITSGESTNYADSVKGRFTISRDNAKNTVYLQMNSLKPEDTAVYYCNADPLSTGWGQYSYWGQGTQVTVSS
EC50 [1]: 0.8 µg/mL | EC50 [2]: 0.9 µg/mL

B8: R1a-E6 (VHH)
VHH: QVQLVESGGGLVQPGGSLRLSCAASGFTLGAYAIAWFRQAPGKEREGVSCISPSDSFTEYGDSVKGRFTVSRDNAKNTVYLQMNSLQPEDTAVYYCAADPVCTAGWYRPSRFDLWGQGTQVTVSS
EC50 [2]: 2.46 µg/mL

B9: R1a-E5 (VHH)
VHH: QLQLVESGGGLVQPGGSLRLSCTASGFSLDNYAIGWFRRAPGEEREGVSFITSTSAVTKYADSVKGRFTISRDNAKNTVYLQMTSLKPEDTAVYYCAGTRWVPTMKADEYNYWGQGTQVTVSS
EC50 [2]: 3.23 µg/mL

B10: R2a-B9 (VHH)
VHH: QVQLVESGGGLVQPGGSLRLSCAASGSAFSINAMGWYRQAPGEEREFVAAITAGGNTYYADSAKARFTISRDNAKNMLYLQMNSLKPEDTAMYYCAATKAFGIATITADYELWGQGTQVTVSS
EC50 [1]: 9.84 µg/mL | EC50 [2]: 1 µg/mL

B11: R2a-E8 (VHH)
VHH: QLQLVESGGGLVQPGGSLRLSCTASGDIFVMYMIDWYRQAPGKQRELVASIDGRGTPMYADSVKGRFTISRDNAKNTVYLQMNSLKPEDTAVYSCHAKSPLVDNEYWGQGTQVTVSS
EC50 [1]: 1.42 µg/mL | EC50 [2]: 0.51 µg/mL

B12: R1a-G6 (VHH)
VHH: QVQLVESGGGLVQSGGSLRLSCAASGSMSRIITMGWYRQAPGMERELVAVIGNNDNTVYGDSVQGRFTVSRDNAKNTAYLQMNSLNAEDTAMYYCKISTLTPPHEYWGQGTQVTVSS
EC50 [2]: 0.3 µg/mL

B13: R1a-H6 (VHH)
VHH: QVQLVESGGGLVQAGDSLRLSCTASVLTFSLYRVGWFRQAPGKEREFVAAIDWGDGPTTYADSVKGRFTISRDNAERTAYLQINSLKPEDTAVYYCGAGNTGSSDRSSSYVHWGQGTQVTVSS
EC50 [2]: 3.85 µg/mL

B14: R1a-F5 (VHH)
VHH: QLQLVESGGGLVQVGGSLRLSCAASGFPFDGYAIAWFRQAPGKEREGVSCRASDGNTYYAESLKGRLTMSTDNAKNTVYLQMNSLKPEDTAVYYCAAASWVASLWSPSEYDYWGQGTQVTVSS
EC50 [1]: 0.7 µg/mL | EC50 [2]: 0.55 µg/mL

B15: R1a-B6 (VHH)
VHH: QVQLVESGGGLVQPGGSLRLSCAASGSFFSRYRMGWYRQAPGEQRELVASIAYDGSTSYADPVKGRFTISRDNANTVHLQMYSLKPDDTAVYYCNLDPPGILYWGQGTQVTVSS
EC50 [1]: 0.58 µg/mL | EC50 [2]: 0.39 µg/mL

B16: R2b-E8 (VHH)
VHH: QVQLVESGGGLVQPGGSLRLSCAASGSFFSRYRMGWYRQAPGEQRELVAGITYDDSTNYAGSVKGRFTISRDNAKNTVHLQMNSLKPEDTAVYYCNLNPPGNLYWGQGTQVTVSS
EC50 [1]: 18.4 µg/mL | EC50 [2]: 3.64 µg/mL

B17: R2a-F9 (VHH)
VHH: QVQLVESGGGLVQPGGSLRLSCSASGSISSIVTMGWYRQAPGKERELVAVIGNYGNTNYADSVKGRFTVSRDNAKNTVYLQMNSLNVEDTAMYVCKFSSTVAPHEYWGQGTQVTVSS
EC50 [2]: 0.19 µg/mL

B18: R2b-D8 (VHH)
VHH: QVQLVESGGGLVQPGGSLRLSCAASGFTFSWYDVGWYRRAPGKERELVADIASTRGTTNYADSVKGRFTISRDNAKNSVYLQMNSLKPEDTAVYYCNTRRDWRDYWGQGIQVTVSS
EC50 [1]: 14.8 µg/mL

B19: R2a-G9 (VHH)
VHH: QVQLVESGGGLVQPGGSLRLSCAASDNIFSFYTMGWYRQSPGKERELVAVIGNGGNTNYADSVKGRFTISRDNGKNKAHLQMNSLKPEDTAVYYCKASGPGGVEVWGQGTQVTVSS
EC50 [2]: 0.3 µg/mL
